# Measured values reported in paper PMC7903523 (Nature, 2020).
# Molecular target: the molecule itself
# Assay: cryo-EM structure
protein,measurement,value
"human sterol O-acyltransferase 1 (ACAT1), full length, C-terminal Flag-tag (enzyme, UniProt P35610 1-550, looked up) MVGEEKMSLRNRLSKSRENPEEDEDQRNPAKESLETPSNGRIDIKQLIAKKIKLTAEAEELKPFFMKEVGSHFDDFVTNLIEKSASLDNGGCALTTFSVLEGEKNNHRAKDLRAPPEQGKIFIARRSLLDELLEVDHIRTIYHMFIALLILFILSTLVVDYIDEGRLVLEFSLLSYAFGKFPTVVWTWWIMFLSTFSVPYFLFQHWATGYSKSSHPLIRSLFHGFLFMIFQIGVLGFGPTYVVLAYTLPPASRFIIIFEQIRFVMKAHSFVRENVPRVLNSAKEKSSTVPIPTVNQYLYFLFAPTLIYRDSYPRNPTVRWGYVAMKFAQVFGCFFYVYYIFERLCAPLFRNIKQEPFSARVLVLCVFNSILPGVLILFLTFFAFLHCWLNAFAEMLRFGDRMFYKDWWNSTSYSNYYRTWNVVVHDWLYYYAYKDFLWFFSKRFKSAAMLAVFAVSAVVHEYALAVCLSFFYPVLFVLFMFFGMAFNFIVNDSRKKPIWNVLMWTSLFLGNGVLLCFYSQEWYARQHCPLKNPTFLDYVRPRSWTCRYVF",stoichiometry N,4
